Test results from patent US7527809B2, “Polyhydroxyalkanoate-containing magnetic structure, and manufacturing method and use thereof” (Canon Kabushiki Kaisha, priority 2003, dated 2009).

Test: PHA synthetic enzyme activity (CoA release, 5,5'-dithiobis-(2-nitrobenzoic acid))
Assay type: biochemical
Conditions: purified enzymes, Table 1
Description: Measurement of activity of PHA synthetic enzyme may be performed by using various known methods. For example, the measurement may be performed by the following method that is based on a measuring principle in that CoA released during polymerization of 3-hydroxyacyl CoA by the catalytic action of PHA synthetic enzyme to obtain PHA forms a color with 5,5′-dithiobis-(2-nitrobenzoic acid). Reagent 1: bovine serum albumin (manufactured by Sigma) dissolved in 0.1 M Tris hydrochloride buffer (pH 8.0) 3.0 mg/ml; Reagent 2: 3-hydroxyoctanoyl CoA dissolved in 0.1 M Tris hydrochloride buffer (pH 8.0) in 3.0 mM; Reagent 3: Trichloroacetic acid dissolved in 0.1 M Tris hydrochloride buffer (pH 8.0) in 10 mg/ml; Reagent 4: 5,5′-dithiobis-(2-nitrobenzoic acid) dissolved in 0.1 M Tris hydrochloride buffer (pH 8.0) in 2.0 mM. First reaction (PHA synthesis reaction): 100 μl of Reagent 1 is added to 100 μl of a sample (enzyme) solution and mixed. […] 500 μl of Reagent 4 is added to 500 μl of the resultant supernatant and the resultant is incubated at 30° C. for 10 minutes and then measured for optical density (absorbance) at 412 nm. […]
The activity of each purified enzyme was measured according to the method described above. Further, protein concentration in the sample was determined using a micro BCA protein assay reagent kit (available from Pierce Chemical Inc.). […]

B1: Purified enzyme solution (2): purified PHA synthetic enzyme YN2-C1 from pYN2-C1 (protein)
chain: MSNKSNDELKYQASENTLGLNPVVGLRGKDLLASARMVLRQAIKQPVHSVKHVAHFGLELKNVLLGKSGLQPTSDDRRFADPAWSQNPLYKRYLQTYLAWRKELHDWIDESNLAPKDVARGHFVINLMTEAMAPTNTAANPAAVKRFFETGGKSLLDGLSHLAKDLVHNGGMPSQVNMGAFEVGKSLGVTEGAVVFRNDVLELIQYKPTTEQVYERPLLVVPPQINKFYVFDLSPDKSLARFCLRNNVQTFIVSWRNPTKEQREWGLSTYIEALKEAVDVVTAITGSKDVNMLGACSGGITCTALLGHYAAIGENKVNALTLLVSVLDTTLDSDVALFVNEQTLEAAKRHSYQAGVLEGRDMAKVFAWMRPNDLIWNYWVNNYLLGNEPPVFDILFWNNDTTRLPAAFHGDLIELFKNNPLIRPNALEVCGTPIDLKQVTADIFSLAGTNDHITPWKSCYKSAQLFGGNVEFVLSSSGHIQSILNPPGNPKSRYMTSTEVAENADEWQANATKHTDSWWLHWQAWQAQRSGELKKSPTKLGSKAYPAGEAAPGTYVHER
modifications: Pseudomonas cichorii YN2; FERM BP-7375
Activity: 2.1 U/ml | Relative activity: 4.1 U/mg protein
